# Test results as given in patent US20260209325A1 (SCHOLAR ROCK, published 2026).
# Assays:
# [1] = molecular target: T1, human pro-myostatin (human, UniProt O14793 24-375, biotinylated (in the SPR assay)); assay: Ab KD, summary Table 11; method and antigen not stated there
# T1 construct: Disulfide-linked homodimer; also called proGDF8 (human)
# [2] = molecular target: human GDF-11 (human, UniProt O95390 299-407, limits assumed); assay: plate binding assay, OD 450 nm, one antibody concentration that is not given, on Hu-GDF-11 (method not described in the text)
# Chain of human GDF-11 (O95390 299-407 limits assumed): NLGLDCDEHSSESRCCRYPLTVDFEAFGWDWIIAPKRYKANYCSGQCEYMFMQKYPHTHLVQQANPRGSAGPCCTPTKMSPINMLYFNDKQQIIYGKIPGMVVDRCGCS
# [3] = molecular target: T2, murine pro-myostatin (mouse, UniProt O08689 25-376, biotinylated (in the SPR assay)); assay: SPR Biacore 8K, biotin-antigen captured
# T2 construct: also called proGDF8 (mouse); mouse pro-myostatin
# [4] = molecular target: T3, cyno pro-myostatin (cynomolgus monkey, Biotinylated for capture in the SPR assay (site not stated). The native form is a disulfide-linked homodimer, partly furin-cleaved; one chain is given.); assay: SPR Biacore 8K, biotin-antigen captured
# T3 construct: also called proGDF8 (cynomolgus); cynomolgus monkey pro-myostatin
# [5] = molecular target: T1, human pro-myostatin; assay: SPR Biacore 8K, biotin-antigen captured
# [6] = molecular target: T4, recombinant human latent myostatin (human, UniProt O14793 24-375, biotinylated (in the Octet pH assay only)); assay: cell-based or functional assay
# [7] = molecular target: T4, recombinant human latent myostatin; assay: cell-based or functional assay; remark: listed apart in the source
# [8] = molecular target: T1, human pro-myostatin; assay: cell-based or functional assay
# [9] = molecular target: mouse GDF-11 (mouse, UniProt Q9Z1W4 297-405, limits assumed); assay: plate binding assay, OD 450 nm, one antibody concentration that is not given, on Mu-GDF-11 (method not described in the text)
# Chain of mouse GDF-11 (Q9Z1W4 297-405 limits assumed): as the sequence (O95390 299-407 limits assumed) above
# [10] = molecular target: T1, human pro-myostatin; assay: Fab KD, summary Table 11; method and antigen not stated there
# [11] = molecular target: T4, recombinant human latent myostatin; assay: BLI (Octet Red384): streptavidin biosensors loaded with biotinylated human latent myostatin, antibody association 300 s, dissociation in PBS at pH 7.4 or pH 5.5
# Method: Binding was performed at pH 7.4 and dissociation at pH 5.5 in an Octet Red384@assay. Streptavidin biosensors were baselined in 1x kinetics buffer (KB) (Sartorius) for one minute, then loaded with 100 nM biotinylated human latent myostatin for five minutes, followed by another baseline step of one minute in 1x KB. Binding of test antibodies was performed for five minutes and then dissociation was performed in PBS at either pH 7.4 or pH 5.5 for five minutes. Analysis was performed using a partial fit, in which full dissociation was projected. Kd at pH 5.5 was divided by Kd at pH 7.4 to calculate pH sensitivity.
binder,measurement,setting,value
"Ab123 (antibody, human IgG4 S228P, kappa, V domains shown) VH: EVQLVESGGGLVQPGGSLRLSCAASGFTFSKYDMSWVRQAPGKGLELVASISSSGGTRYYPDSVKGRFTISRDNAKNSLYLQMNSLRAEDTAVYYCAKDLWVASPGYGMDVWGQGTTVTVSS VL: DIVMTQSPLSLPVTPGEPASISCRSSQSLLHSSGHNYLHWYLQKPGQSPQLLIYLGSIRAPGVPDRFSGSGSGTDFTLKISRVEAEDVGVYYCMQALLNPPTFGGGTKVEIKR",Kd,[1],0.683 nM
same,binding result,[2],no binding
same,Kd,[3],0.618 nM
same,koff,[3],0.000772 s⁻¹
same,kon,[3],1.25e+06 M⁻¹ s⁻¹
same,Kd,[4],0.339 nM
same,koff,[4],0.000539 s⁻¹
same,kon,[4],1.59e+06 M⁻¹ s⁻¹
same,Kd,[5],0.394 nM
same,koff,[5],0.000543 s⁻¹
same,kon,[5],1.38e+06 M⁻¹ s⁻¹
same,mTLL2 IC50,[6],0.139 nM
same,IC50 (nM) Latent + mTLL2,[7],0.139 nM
same,IC50 (nM) Pro + Furin,[8],0.184 nM
same,binding result,[9],no binding
"Ab123 Fab (Fab, V domains shown, Fab of Ab123; also called Ab123 Fab fragment) VH: EVQLVESGGGLVQPGGSLRLSCAASGFTFSKYDMSWVRQAPGKGLELVASISSSGGTRYYPDSVKGRFTISRDNAKNSLYLQMNSLRAEDTAVYYCAKDLWVASPGYGMDVWGQGTTVTVSS VL: DIVMTQSPLSLPVTPGEPASISCRSSQSLLHSSGHNYLHWYLQKPGQSPQLLIYLGSIRAPGVPDRFSGSGSGTDFTLKISRVEAEDVGVYYCMQALLNPPTFGGGTKVEIKR",Kd,[10],5.51 nM
"Ab105 Fab (Fab, V domains shown, Fab of Ab105) VH: EVQLVESGGGLVQPGGSLRLSCAASGSAFSSYGMSWVRQAPGKGLELVASIGGTGATYYPDSVKGRFTISRDNAKNSLYLQMNSLRAEDTAVYYCARDLLVRFLEWGHYYGMDVWGQGTTVTVSS VL: DIVMTQSPLSLPVTPGEPASISCRSSQSLLHSSGYNFLHWYLQKPGQSPQLLIYAASSRAPGIPDRFSGSGSGTDFTLKISRVEAEDVGVYYCMHGGQGPTFGGGTKVEIK",Kd,[10],21.9 nM
"Fab fragment of Ab109 (Fab, V domains shown, Fab of Ab109 (molecular weight 49.25 kDa); also called Ab109 Fab) VH: EVQLVESGGGLVQPGGSLRLSCAASGFTFSSYGMSWVRQAPGKGLELVASFTGSGGTYYPDSVKGRFTISRDNAKNSLYLQMNSLRAEDTAVYYCARDLLIRFLEWSHYYGMDVWGQGTTVTVSS VL: DIVMTQSPLSLPVTPGEPASISCRSSQSLLHSSGHNFLHWYLQKPGQSPQLLIYEVSNRVSGVPDRFSGSGSGTDFTLKISRVEAEDVGVYYCMQQTQYPPTFGGGTKVEIK",Kd,[10],39.5 nM
"Ab133 Fab (Fab, V domains shown, Fab of Ab133) VH: EVQLVESGGGLVQPGGSLRLSCAASGFTFSSYGMSWVRQAPGKGLELVASFTGSGGAYYPDSVKGRFTISRDNAKNSLYLQMNSLRAEDTAVYYCARDLLIRFLEWSHYYGMDVWGQGTTVTVSS VL: DIVMTQSPLSLPVTPGEPASISCRSSQSLLHSSGHNFLHWYLQKPGQSPQLLIYEVSNRVSGVPDRFSGSGSGTDFTLKISRVEAEDVGVYYCQQQTQYPGTFGGGTKVEIK",Kd,[10],23 nM
"Ab141 Fab (Fab, V domains shown, Fab of Ab141) VH: EVQLVESGGGLVQPGGSLRLSCAASGFTFSSYGMSWVRQAPGKGLELVASFTGSGGAYYPDSVKGRFTISRDNAKNSLYLQMNSLRAEDTAVYYCARDLLIRFLEWSHYYGMDVWGQGTTVTVSS VL: DIVMTQSPLSLPVTPGEPASISCRSSQSLLHSSGHNFLHWYLQKPGQSPQLLIYEVSNRVSGVPDRFSGSGSGTDFTLKISRVEAEDVGVYYCMQQTQYPGTFGGGTKVEIK",Kd,[10],19 nM
"Ab131 Fab (Fab, V domains shown, Fab of Ab131) VH: EVQLVESGGGLVQPGGSLRLSCAASGSAFSSYGMSWVRQAPGKGLELVASIGGTGATYYPDSVKGRFTISRDNAKNSLYLQMNSLRAEDTAVYYCARDLLVRFLEWGHYYGMDVWGQGTTVTVSS VL: DIVMTQSPLSLPVTPGEPASISCRSSQSLLHSSGYNFLHWYLQKPGQSPQLLIYAASSRAPGIPDRFSGSGSGTDFTLKISRVEAEDVGVYYCQHGGQGPTFGGGTKVEIK",Kd,[10],17.4 nM
"Ab132 Fab (Fab, V domains shown, Fab of Ab132) VH: EVQLVESGGGLVQPGGSLRLSCAASGFTFSSYGMSWVRQAPGKGLELVASFTGSGGTYYPDSVKGRFTISRDNAKNSLYLQMNSLRAEDTAVYYCARDLLIRFLEWSHYYGMDVWGQGTTVTVSS VL: DIVMTQSPLSLPVTPGEPASISCRSSQSLLHSSGHNFLHWYLQKPGQSPQLLIYEVSNRVSGVPDRFSGSGSGTDFTLKISRVEAEDVGVYYCQQQTQYPPTFGGGTKVEIK",Kd,[10],61.4 nM
"Ab112 Fab (Fab, V domains shown, Fab of Ab112; also called Ab112 Fab fragment) VH: QVQLVQSGAEVKKPGASVKVSCKVSGGTFGIYAIHWVRQAPGKGLEWMGGTIPVFGTAIYAQKFQGRVTMTEDTSTDTAYMELSSLKSEDTAVYYCASLTGIAAAGTHPARGGMDVWGQGTTVTVSS VL: DIQMTQSPSSVSASVGDRVTITCRASPSISSYLAWYQQKPGKAPKLLIYAASRLQSGVPSRFSGSGSGTDFTLTISSLQPEDFANYYCQEYLSFPLTFGGGTKVEIK",Kd,[10],6.19 nM
"Ab138 (antibody, human IgG4 S228P, kappa, V domains shown) VH: EVQLVESGGGLVQPGGSLRLSCAASGFTFTSYGMSWVRQAPGKGLELVASITGSKGETYYPDSVKGRFTISRDNAKNSLYLQMNSLRAEDTAVYYCARDLLVRFLEWSHYYGMDVWGQGTTVTVSS VL: DIVMTQSPLSLPVTPGEPASISCRSSQSLLHSSGHNFLHWYLQKPGQSPQLLIYETSNRAPGIPDRFSGSGSGTDFTLKISRVEAEDVGVYYCQQATQFPRPFGGGTKVEIKR",fold difference in off-rate (Kd at pH 5.5 / Kd at pH 7.4),[11],7.9 fold
same,Kd,[5],0.11 nM
same,koff,[5],0.000577 s⁻¹
same,kon,[5],5.27e+06 M⁻¹ s⁻¹
"Ab102 Fab (Fab, V domains shown) VH: EVQLVESGGGLVQPGGSLRLSCAASGFTFTSYGMSWVRQAPGKGLELVASITGSGGETYYPDSVKGRFTISRDNAKNSLYLQMNSLRAEDTAVYYCARDLLVRFLEWSHYYGMDVWGQGTTVTVSS VL: DIVMTQSPLSLPVTPGEPASISCRSSQSLLHSSGHNFLHWYLQKPGQSPQLLIYETSNRAPGIPDRFSGSGSGTDFTLKISRVEAEDVGVYYCMQATQFPRPFGGGTKVEIK",Kd,[10],44.4 nM
"Ab137 (antibody, human IgG4 S228P, kappa, V domains shown) VH: EVQLVESGGGLVQPGGSLRLSCAASGFTFSSYGMSWVRQAPGKGLELVASFTGSGGTYYPDSVKGRFTISRDNAKNSLYLQMNSLRAEDTAVYYCARDLLIRFLEWGHYYGMDVWGQGTTVTVSS VL: DIVMTQSPLSLPVTPGEPASISCRSSQSLLHSSGHNFLHWYLQKPGQSPQLLIYEVSNRVSGVPDRFSGSGSGTDFTLKISRVEAEDVGVYYCMQQTQYPPTFGGGTKVEIKR",fold difference in off-rate (Kd at pH 5.5 / Kd at pH 7.4),[11],26 fold
"Ab130 Fab (Fab, V domains shown, Fab of Ab130) VH: EVQLVESGGGLVQPGGSLRLSCAASGFTFTSYGMSWVRQAPGKGLELVASITGSGGETYYPDSVKGRFTISRDNAKNSLYLQMNSLRAEDTAVYYCARDLLVRFLEWSHYYGMDVWGQGTTVTVSS VL: DIVMTQSPLSLPVTPGEPASISCRSSQSLLHSSGHNFLHWYLQKPGQSPQLLIYETSNRAPGIPDRFSGSGSGTDFTLKISRVEAEDVGVYYCQQATQFPRPFGGGTKVEIK",Kd,[10],53.8 nM
"Ab140 (antibody, human IgG4 S228P, kappa, V domains shown) VH: EVQLVESGGGLVQPGGSLRLSCAASGFTFSSYGMSWVRQAPGKGLELVASFTGSGGTYYPDSVKGRFTISRDNAKNSLYLQMNSLRAEDTAVYYCARDNLIRFLEWSHYYGMDVWGQGTTVTVSS VL: DIVMTQSPLSLPVTPGEPASISCRSSQSLLHSSGHNFLHWYLQKPGQSPQLLIYEVSNRESGVPDRFSGSGSGTDFTLKISRVEAEDVGVYYCQQQTQYPPTFGGGTKVEIKR",fold difference in off-rate (Kd at pH 5.5 / Kd at pH 7.4),[11],10.4 fold
same,Kd,[5],0.109 nM
same,koff,[5],0.000711 s⁻¹
same,kon,[5],6.53e+06 M⁻¹ s⁻¹
"Ab139 (antibody, human IgG4 S228P, kappa, V domains shown) VH: EVQLVESGGGLVQPGGSLRLSCAASGFTFSSYGMSWVRQAPGKGLELVASFTGSGAAYYPDSVKGRFTISRDNAKNSLYLQMNSLRAEDTAVYYCARDLLIRFLEWSHYYGMDVWGQGTTVTVSS VL: DIVMTQSPLSLPVTPGEPASISCRSSQSLLHSSGHNFLHWYLQKPGQSPQLLIYESSNRVSGVPDRFSGSGSGTDFTLKISRVEAEDVGVYYCQQQTQYPPTFGGGTKVEIKR",fold difference in off-rate (Kd at pH 5.5 / Kd at pH 7.4),[11],16.3 fold
same,Kd,[5],0.121 nM
same,koff,[5],0.0023 s⁻¹
same,kon,[5],1.9e+07 M⁻¹ s⁻¹
